The values below come from US20250313621A1.

pEC50: −log10 of the molar value. Bounds are passed on as bounds.

Usually pEC50 stands for the negative decadic logarithm of the EC50, by convention in mol/L.

The target of assay [1] is Wildtype human PAR 1 (human) (UniProt P25116). Nature of the assay: cell-based or functional assay.
For assay [2], the target named is Wildtype human PAR2 expressed on cells (human) (UniProt P55085). Nature of the assay: cell-based or functional assay.
For assay [3], the target named is V5His-huPAR2 on Flp-In CHO cells (human) (UniProt P55085). Put plainly: FACS titration on CHO_V5HIS-huPAR2 cells versus CHO parental cells (flat), RLU, axis Ab [nM].
Chain of V5His-huPAR2 on Flp-In CHO cells (human) (P55085 37-397 limits assumed): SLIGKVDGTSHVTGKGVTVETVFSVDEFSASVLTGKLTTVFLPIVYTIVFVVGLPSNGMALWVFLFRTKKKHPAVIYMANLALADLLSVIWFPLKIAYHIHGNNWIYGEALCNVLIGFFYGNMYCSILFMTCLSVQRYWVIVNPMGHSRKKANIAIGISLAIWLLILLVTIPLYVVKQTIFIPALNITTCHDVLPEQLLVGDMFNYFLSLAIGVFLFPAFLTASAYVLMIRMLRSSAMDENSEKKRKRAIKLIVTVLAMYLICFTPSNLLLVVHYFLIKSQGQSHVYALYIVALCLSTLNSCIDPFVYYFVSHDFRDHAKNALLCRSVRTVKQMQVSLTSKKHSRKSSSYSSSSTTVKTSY

Chain of Wildtype human PAR 1 (human) (P25116 42-425 limits assumed): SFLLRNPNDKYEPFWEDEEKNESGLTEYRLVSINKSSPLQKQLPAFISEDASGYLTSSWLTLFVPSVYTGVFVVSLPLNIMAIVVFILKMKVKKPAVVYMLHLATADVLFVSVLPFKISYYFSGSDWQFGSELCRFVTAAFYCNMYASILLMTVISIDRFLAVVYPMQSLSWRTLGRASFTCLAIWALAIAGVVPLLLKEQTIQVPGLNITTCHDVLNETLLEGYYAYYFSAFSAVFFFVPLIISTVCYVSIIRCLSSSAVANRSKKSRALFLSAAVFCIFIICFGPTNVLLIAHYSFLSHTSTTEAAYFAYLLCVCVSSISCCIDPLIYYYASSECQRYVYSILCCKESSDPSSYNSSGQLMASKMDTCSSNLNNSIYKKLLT
Chain of Wildtype human PAR2 expressed on cells (human) (P55085 37-397 limits assumed): as the sequence (P55085 37-397 limits assumed) above

Take MAB3949 (antibody): in assay [1], the Human PAR1 SFLLR IC50, IP-One was > 1000 nM and the SFLLR fold inhibition, human PAR1, IP-One came to 0 fold. In assay [2], the % Max Inhibition, AP challenge, IP-One turned out to be 100% and the % Max Inhibition, Bovine Trypsin challenge, IP-One was determined as 0%. In addition, the negative-log EC50 (pEC50) in assay [3] is 8.17.
